# Experimental data published in patent US20250051471A1 (WILLIAM ROBERT ARATHOON LIVING TRUST DATED AUGUST 29 2016, published 2025).
# Tests used:
# [1] = biological target: T1, cynomolgus CD47 on red blood cells (cynomolgus, UniProt A0A5F8AK49 19-323 (rhesus entry)); assay: flow cytometry on cynomolgus RBC, donor Cy744
# T1 construct: whole, on cells; The assay target is the red blood cell; also called cynomolgus Red Blood Cells
# [2] = biological target: T1, cynomolgus CD47 on red blood cells; assay: flow cytometry on cynomolgus RBC, donor Cy745
# [3] = biological target: T2, recombinant extracellular domain of human CD47-Fc fusion protein (human, UniProt Q08722 19-139); assay: ELISA on plate-coated recombinant human CD47 extracellular domain-Fc, A450; x axis printed as log10 values under the unit nM
# T2 construct: extracellular domain; also called huCD47 ECD; CD47-Fc fusion protein (R&D systems); not shown: Fc part of the bought fusion protein; not described
# [4] = biological target: T1, cynomolgus CD47 on red blood cells; assay: flow cytometry on cynomolgus RBC, donor Cy747
# human CD47 on cells [5] = biological target: T3, human CD47 on cells (human, UniProt Q08722 19-323); assay: flow cytometry on human RBC, donor D835
# T3 construct: also called hCD47; CD47 antigen
# human CD47 on cells [6] = biological target: T3, human CD47 on cells; assay: flow cytometry on human RBC, donor D834
# human CD47 on cells [7] = biological target: T3, human CD47 on cells; assay: flow cytometry on human RBC, donor D837
# human CD47 on cells [8] = biological target: T3, human CD47 on cells; assay: flow cytometry on human RBC, donor D836
# [9] = biological target: T1, cynomolgus CD47 on red blood cells; assay: flow cytometry on cynomolgus RBC, donor Cy746
# human ABCB1 on cells [10] = biological target: T4, human ABCB1 on cells (human, UniProt P08183 1-1280); assay: flow cytometry, DX5/ADR CD47 WT cells (carry both ABCB1 and CD47), % positive cells
# T4 construct: whole, on cells; also called MDR1; Pgp
# human ABCB1 on cells [11] = biological target: T4, human ABCB1 on cells; assay: flow cytometry, DX5 CD47 KO cells, % positive cells
# human CD47 on cells [12] = biological target: T3, human CD47 on cells; assay: receptor occupancy assay on A2780ADR cells (carry both ABCB1 and CD47), flow cytometry; free CD47 detected with Alexa 647 anti-hCD47 CC2C6 (competitor), direct binding with PE anti-human IgG Fc
# human ABCB1 on cells [13] = biological target: T4, human ABCB1 on cells; assay: flow cytometry, DX5 CD47 knock-out cells ('DX5 KT14 KO'), MFI
# human CD47 on cells [14] = biological target: T3, human CD47 on cells; assay: receptor occupancy assay on A2780ADR cells, curve 'BiS-Direct Binding' (PE anti-human IgG Fc); the cells carry both antigens, the target is named after the receptor whose free signal falls most in the same panel
# human ABCB1 on cells [15] = biological target: T4, human ABCB1 on cells; assay: flow cytometry, DX5 WT cells (carry both ABCB1 and CD47), MFI
# human CD47 on cells [16] = biological target: T3, human CD47 on cells; assay: flow cytometry, DX5 B1 KO (ABCB1 knock-out) cells, % positive cells
# human ABCB1 on cells [17] = biological target: T4, human ABCB1 on cells; assay: flow cytometry, DX5 CD47 KO cells, % positive cells; remark: listed apart in the source
# human CD47 on cells [18] = biological target: T3, human CD47 on cells; assay: flow cytometry, DX5 B1 KO (ABCB1 knock-out) cells, % positive cells; remark: listed apart in the source
# human ABCB1 on cells [19] = biological target: T4, human ABCB1 on cells; assay: receptor occupancy assay on A2780ADR cells, curve 'BiS-Direct Binding' (PE anti-human IgG Fc); the cells carry both antigens, the target is named after the receptor whose free signal falls in the same panel
Binder,% Positive [1] [%],% Positive [2] [%],% Positive [4] [%],% Positive (human CD47 on cells [5]) [%],% Positive (human CD47 on cells [6]) [%],% Positive (human CD47 on cells [7]) [%],% Positive (human CD47 on cells [8]) [%],% Positive [9] [%],also measured
"anti-CD47 monoclonal antibody 5F9 (antibody, IgG1, V domains shown, also called KT14; 5F9 KT14 mAb) VH: QVQLVQSGAEVKKPGASVKVSCKASGYTFTNYNMHWVRQAPGQRLEWMGTIYPGNDDTSYNQKFKDRVTITADTSASTAYMELSSLRSEDTAVYYCARGGYRAMDYWGQGTLVTVSS VL: DIVMTQSPLSLPVTPGEPASISCRSSQSIVYSNGNTYLGWYLQKPGQSPQLLIYKVSNRFSGVPDRFSGSGSGTDFTLKISRVEADVGVYYCFQGSHVPYTFGQGTKLEIK",99,98.8,99,98.9,99.1,99.1,98.9,99.4,EC50 (read off the curve) [3]: ~0.003 nM
"15D3hmz16-1/KT14/MRK16v4a1 (bispecific antibody, V domains shown, Human IgG1/kappa bispecific with KK/DD charge-pair Fc; also called 15D3hmz16-1 KK/KT14 DD/MRK16v4a1 Bispecific; 15D316-1 DD/KT14 KK/MRK16v4a1 hmz LC) VH 1: EVQLVESGGVVVQPGGSLRLSCAASGFTFSRYTMSWVRQAPGKGLEWVATISSGGGNTYYPDSVKGRFTVSRDNSKNSLYLQMNSLRTEDTALYYCARYYRYDAWFAYWGQGTLVTVSS VH 2: QVQLVQSGAEVKKPGASVKVSCKASGYTFTNYNMHWVRQAPGQRLEWMGTIYPGNDDTSYNQKFKDRVTITADTSASTAYMELSSLRSEDTAVYYCARGGYRAMDYWGQGTLVTVSS VL: DIVMTQTPLSSPVTLGQPASISCRSSQSIVHSTGNTYLEWYQQKPGQPPRLLIYKISNRFSGVPDRFSGSGSGTDFTLKISRVEAEDVGVYYCFQASHFPRTFGQGTKLEIK",0.4,0.4,5.7,,,,,1.5,
"15D3hmz16-1/KT14/MRK16v4a12 (bispecific antibody, V domains shown, Human IgG1/kappa bispecific) VH 1: EVQLVESGGVVVQPGGSLRLSCAASGFTFSRYTMSWVRQAPGKGLEWVATISSGGGNTYYPDSVKGRFTVSRDNSKNSLYLQMNSLRTEDTALYYCARYYRYDAWFAYWGQGTLVTVSS VH 2: QVQLVQSGAEVKKPGASVKVSCKASGYTFTNYNMHWVRQAPGQRLEWMGTIYPGNDDTSYNQKFKDRVTITADTSASTAYMELSSLRSEDTAVYYCARGGYRAMDYWGQGTLVTVSS VL: DIVMTQTPLSSPVTLGQPASISCRSSQSIVHSTGNTYLEWYQQKPGQPPRLLIYKVSNRFSGVPDRFSGSGSGTDFTLKISRVEAEDVGVYYCFQASHFPRTFGQGTKLEIK",,,,,0.4,,,,
"15D3hmz HIR2/KT14 KbR1/B1VL6/CDR3v2a (bispecific antibody, human IgG1, kappa, Humanized ABCB1 x CD47 IgG1 bispecific with a common light chain) heavy 1: EVQLVESGGVVVQPGGSLRLSCAASGFTFSRYTMSWVRQAPGKGLEWVATISSGGGNTYYPDSVKGRFTVSRDNSKNSLYLQMNSLRTEDTALYYCARYGAGDAWFAYWGQGTLVTVSSASTKGPSVFPLAPSSKSTSGGTAALGCLVKDYFPEPVTVSWNSGALTSGVHTFPAVLQSSGLYSLSSVVTVPSSSLGTQTYICNVNHKPSNTKVDKRVEPKSCDKTHTCPPCPAPELLGGPSVFLFPPKPKDTLMISRTPEVTCVVVDVSHEDPEVKFNWYVDGVEVHNAKTKPREEQYNSTYRVVSVLTVLHQDWLNGKEYKCKVSNKALPAPIEKTISKAKGQPREPQVCTLPPSREEMTKNQVSLSCAVKGFYPSDIAVEWESNGQPENNYKTTPPVLDSDGSFVLVSKLTVDKSRWQQGNVFSCSVMHEALHNHYTQKSLSLSPG heavy 2: not shown light: DIVMTQSPLSLPVTPGEPASISCRSSQSLVHSNGNTYLEWYLQKPGQSPQLLIYKVSNRFSGVPDRFSGSGSGTDFTLKISRVEAEDVGVYYCFQGSHFPRTFGQGTKLEIKRTVAAPSVFIFPPSDEQLKSGTASVVCLLNNFYPREAKVQWKVDNALQSGNSQESVTEQDSKDSTYSLSSTLTLSKADYEKHKVYACEVTHQGLSSPVTKSFNRGEC",,,,,,,,,EC50 (read off the curve) (human ABCB1 on cells [10]): ~0.8 nM; EC50 (read off the curve) (human ABCB1 on cells [11]): ~5 nM; binding result (human CD47 on cells [12]): binds
"15D3 hmz HIR2/KT14 KbR1/B1.89v1.huL1(KV2) (bispecific antibody, human IgG1, kappa, Humanized ABCB1 x CD47 IgG1 bispecific with a common light chain) heavy 1: EVQLVESGGVVVQPGGSLRLSCAASGFTFSRYTMSWVRQAPGKGLEWVATISSGGGNTYYPDSVKGRFTVSRDNSKNSLYLQMNSLRTEDTALYYCARYGAGDAWFAYWGQGTLVTVSSASTKGPSVFPLAPSSKSTSGGTAALGCLVKDYFPEPVTVSWNSGALTSGVHTFPAVLQSSGLYSLSSVVTVPSSSLGTQTYICNVNHKPSNTKVDKRVEPKSCDKTHTCPPCPAPELLGGPSVFLFPPKPKDTLMISRTPEVTCVVVDVSHEDPEVKFNWYVDGVEVHNAKTKPREEQYNSTYRVVSVLTVLHQDWLNGKEYKCKVSNKALPAPIEKTISKAKGQPREPQVCTLPPSREEMTKNQVSLSCAVKGFYPSDIAVEWESNGQPENNYKTTPPVLDSDGSFVLVSKLTVDKSRWQQGNVFSCSVMHEALHNHYTQKSLSLSPG heavy 2: not shown light: DIVMTQSPLSLPVTPGEPASISCRSSQTIVHSNGNTYLEWYLQKPGQSPQLLIYKVSKRFSGVPDRFSGSGSGTDFTLKISRVEAEDVGVYYCFQASHFPRTFGQGTKLEIKRTVAAPSVFIFPPSDEQLKSGTASVVCLLNNFYPREAKVQWKVDNALQSGNSQESVTEQDSKDSTYSLSSTLTLSKADYEKHKVYACEVTHQGLSSPVTKSFNRGEC",7.9,10.6,74.5,1.4,2,1.6,1.1,57.7,EC50 (read off the curve) (human ABCB1 on cells [13]): ~50 nM; EC50 (read off the curve) (human CD47 on cells [14]): ~200 nM; EC50 (read off the curve) (human ABCB1 on cells [15]): ~30 nM; EC50 (read off the curve) (human CD47 on cells [16]): ~30 nM; EC50 (read off the curve) (human ABCB1 on cells [17]): ~0.4 nM
"15D3 hmz DD/KT14 KK/MRK16 hmz bispecific antibody (bispecific antibody, human IgG1, the general methods state a human kappa constant region) heavy 1: not shown heavy 2: not shown VL: DIVMTQTPLSSPVTLGQPASISCRSSQSIVHSTGNTYLEWYQQRPGQPPRLLIYKISNRFSGVPDRFSGSGAGTDFTLKISRVEAEDVGVYYCFQASHFPRTFGGGTKLEIKR",,,,,,,,,EC50 (read off the curve) [3]: ~0.08 nM
"ABCB1XCD47 KBisP1.1 (15D3 HC KK/KT14 HC DD/MRK16 LC) (bispecific antibody, human IgG1, kappa, also called KNJYBisP1.1) heavy 1: not shown heavy 2: not shown light: DVLMTQTPVSLSVSLGDQASISCRSSQSIVHSTGNTYLEWYLQKPGQSPKLLIYKISNRFSGVPDRFSGSGSGTDFTLKISRVEAEDLGVYYCFQASHFPRTFGGGTKLEIKRTVAAPSVFIFPPSDEQLKSGTASVVCLLNNFYPREAKVQWKVDNALQSGNSQESVTEQDSKDSTYSLSSTLTLSKADYEKHKVYACEVTHQGLSSPVTKSFNRGEC",0.5,0.7,3.7,0.4,0.4,0.5,0.3,2,EC50 (read off the curve) (human ABCB1 on cells [13]): ~30 nM; EC50 (read off the curve) (human ABCB1 on cells [15]): ~10 nM
"KB1-1401 (bispecific antibody, human IgG1, kappa, also called 15D3DD KT14KK MRK16) heavy chain 1 (anti-ABCB1, DD): not shown heavy chain 2 (anti-CD47, KK): not shown light chain: DVLMTQTPVSLSVSLGDQASISCRSSQSIVHSTGNTYLEWYLQKPGQSPKLLIYKISNRFSGVPDRFSGSGSGTDFTLKISRVEAEDLGVYYCFQASHFPRTFGGGTKLEIKRTVAAPSVFIFPPSDEQLKSGTASVVCLLNNFYPREAKVQWKVDNALQSGNSQESVTEQDSKDSTYSLSSTLTLSKADYEKHKVYACEVTHQGLSSPVTKSFNRGEC",,,,,,,,,binding result (human CD47 on cells [18]): no binding (tested: about 660 nM); EC50 (read off the curve) (human ABCB1 on cells [19]): ~200 nM
